Source: publication PMC8617193

Biological target: NFS1 as crystallised in the (NIAU2)2 complexes (human)
Assay: crystal structure; (NIAU2)2 complexes with wild-type or mutant ISCU2, 16-18 mg/ml, sitting drop, 0.1 M MES pH 6.5, 22.5% PEG-400, 15 °C; space group P41212; 1.57-1.95 Å

Q: Which stoichiometry N does the source give for “NFS1 as crystallised in the (NIAU2)2 complexes (enzyme)” here?
A: Its stoichiometry N is 2.
